Test results taken from patent US20230212587A1, “Mutant Hydroxyphenylpyruvate Dioxygenase Polypeptide, Encoding Gene Thereof and Use Therefor” (Beijing Dabeinong Biotechnology Co., Ltd., priority 2019, published 2023).

B1: AsHPPDm-F372A-02: Avena sativa HPPD mutant F372A, SEQ ID NO: 4; gene SEQ ID NO: 6 (protein)
chain: MPPTPATATGAAAAAVTPEHAARSFPRVVRVNPRSDRFPVLSFHHVELWCADAASAAGRFSFALGAPLAARSDLSTGNSAHASLLLRSGALAFLFTAPYAPPPQEAATAAATASIPSFSADAARTFAAAHGLAVRSVGVRVADAAEAFRVSVAGGARPAFAPADLGHGFGLAEVELYGDVVLRFVSYPDETDLPFLPGFERVSSPGAVDYGLTRFDHVVGNVPEMAPVIDYMKGFLGFHEFAEFTAEDVGTTESGLNSVVLANNSEAVLLPLNEPVHGTKRRSQIQTYLEYHGGPGVQHIALASNDVLRTLREMRARTPMGGFEFMAPPQAKYYEGVRRIAGDVLSEEQIKECQELGVLVDRDDQGVLLQIATKPVGDRPTFFLEMIQRIGCMEKDEVGQEYQKGGCGGFGKGNFSELFKSIEDYEKSLEVKQSVVAQKS
modifications: AsHPPDm-F372A Amido Acid Sequence
B2: PfHPPDm-F372A-02: Pseudomonas fluorescens HPPD mutant F372A, SEQ ID NO: 30 (protein)
chain: MADLYENPMGLMGFEFIEFASPTPGTLEPIFEIMGFTKVATHRSKNVHLYRQGEINLILNNEPNSIASYFAAEHGPSVCGMAFRVKDSQKAYNRALELGAQPIHIDTGPMELNLPAIKGIGGAPLYLIDRFGEGSSIYDIDFVYLEGVERNPVGAGLKVIDHLTHNVYRGRMVYWANFYEKLFNFREARYFDIKGEYTGLTSKAMSAPDGMIRIPLNEESSKGAGQIEEFLMQFNGEGIQHVAFLTDDLVKTWDALKKIGMRFMTAPPDTYYEMLEGRLPDHGEPVDQLQARGILLDGSSVEGDKRLLLQIASETLMGPVFFEFIQRKGDDGFGEGNFKALFESIERDQVRRGVLTAD
modifications: PfHPPDm-F372A Amino Acid Sequence
B3: AsHPPDm-F372A-A110: Avena sativa HPPD with F372A and deletion of alanine at position 110, SEQ ID NO: 412 (protein)
chain: MPPTPATATGAAAAAVTPEHAARSFPRVVRVNPRSDRFPVLSFHHVELWCADAASAAGRFSFALGAPLAARSDLSTGNSAHASLLLRSGALAFLFTAPYAPPPQEAATAATASIPSFSADAARTFAAAHGLAVRSVGVRVADAAEAFRVSVAGGARPAFAPADLGHGFGLAEVELYGDVVLRFVSYPDETDLPFLPGFERVSSPGAVDYGLTRFDHVVGNVPEMAPVIDYMKGFLGFHEFAEFTAEDVGTTESGLNSVVLANNSEAVLLPLNEPVHGTKRRSQIQTYLEYHGGPGVQHIALASNDVLRTLREMRARTPMGGFEFMAPPQAKYYEGVRRIAGDVLSEEQIKECQELGVLVDRDDQGVLLQIATKPVGDRPTFFLEMIQRIGCMEKDEVGQEYQKGGCGGFGKGNFSELFKSIEDYEKSLEVKQSVVAQKS
modifications: AsHPPDm-F372A-A110 Amino Acid Sequence
B4: ZmHPPDm-F372A-02: Zea mays HPPD mutant F372A, SEQ ID NO: 20 (protein)
chain: MPPTPTAAAAGAAVAAASAAEQAAFRLVGHRNFVRFNPRSDRFHTLAFHHVELWCADAASAAGRFSFGLGAPLAARSDLSTGNSAHASLLLRSGSLSFLFTAPYAHGADAATAALPSFSAAAARRFAADHGLAVRAVALRVADAEEAFRTSVAAGARPAFGPVDLGRGFRLAEVELYGDVVLRYVSYPDGAAGEPFLPGFEGVASPGAADYGLSRFDHIVGNVPELAPAAAYFAGFTGFHEFAEFTTEDVGTAESGLNSMVLANNSENVLLPLNEPVHGTKRRSQIQTFLDHHGGPGVQHMALASDDVLRTLREMQARSAMGGFEFMAPPTSDYYDGVRRRAGDVLTEAQIKECQELGVLVDRDDQGVLLQIAPKPVGDRPTLFLEIIQRIGCMERDEKGQEYQKGGCGGFGKGNFSQLFKSIEDYEKSLEAMQAAAAATAQGS
modifications: ZmHPPDm-F372A Amino Acid Sequence

Test system: soybean T1 plants
Test: Herbicide tolerance of transgenic soybean T1 plants to topramezone
Assay type: in vivo
Details: topramezone 50 and 100 g ai/ha, 7 DAT, compared to control vector DBN11375NN and wild-type
Text: (§1) The Arabidopsisthaliana T1 plants into which the AsHPPDm-F372A-02 nucleotide sequence was introduced, Arabidopsis thaliana T1 plants into which the AsHPPD-02 nucleotide sequence was introduced and wild-type Arabidopsisthaliana plants (18 days after sowing) were sprayed with topramezone at four different concentrations, i.e., 25 g ai/ha (one-fold field concentration, 1×), 50 g ai/ha (two-fold field concentration, 2×), 100 g ai/ha (four-fold field concentration, 4×) and 0 g ai/ha (water, 0×) to determine the tolerance of Arabidopsisthaliana to the herbicide. The degree of damage caused by the herbicide was measured for each plant according to the proportion of bleached leaf area (the proportion of bleached leaf area=bleached leaf area/total leaf area×100%) 7 days after spraying (7 DAT): the case where there is basically no bleached phenotype is defined as grade 0, the case where the proportion of bleached leaf area is less than 50% is defined as grade 1,the case where the proportion of bleached leaf area is more than 50% is defined as grade 2, and the case where the proportion of bleached leaf area is 100% grade is defined as grade 3.
The soybean T1 plants into which the AsHPPDm-F372A-02 nucleotide sequence was introduced, soybean T1 plants into which the ZmHPPDm-F372A-02 nucleotide sequence was introduced, soybean T1 plants into which the PfHPPDm-F372A-02 nucleotide sequence was introduced, soybean T1 plants into which the AsHPPDm-F372A-A110 nucleotide sequence was introduced, soybean T1 plants into which, the PfHPPDm-F372A-G413W nucleotide sequence was introduced, soybean T1 plants into which the control vector DBN11375NN was introduced and wild-type soybean plants (V3-V4 at seedling stage) were sprayed with topramezone at two different concentrations respectively, i.e. 50 g ai/ha (2-fold field concentration, 2 ×) and 100 g ai/ha (4-fold field concentration, 4 ×) to detect the herbicide tolerance of soybean plants. According to the method in point 6 of Example 1, after 7 days of spraying (7 DAT), the damage degree of each plant by the herbicide was statistically analyzed, and the scoring and resistance evaluation were carried out accordingly. The soybean plants into which the AsHPPDm-F372A-02 nucleotide sequence was introduced were of two strains in total (S1 and S2), the soybean plants into which the ZmHPPDm-F372A-02 nucleotide sequence was introduced were of two strains in total (S3 and S4), the soybean plants into which the PfHPPDm-F372A-02 nucleotide sequence was introduced were of two strains in total (S5 and S6), the soybean plants into which the AsHPPDm-F372A-Al 10 nucleotide sequence was introduced were of two strains in total (S7 and S8), the soybean plants into which the PfHPPDm-F372A-G413W nucleotide sequence was introduced were of two strains in total (S9 and S10), the soybean plants into which the control vector DBN11375NN nucleotide sequence was introduced were of one strain in total (S11), and the wild-type soybean plants were of one strain in total (CK1); and 8 plants were selected from each strain and detected.

| Molecule | tolerance to topramezone, in words |
| --- | --- |
| B1 | higher tolerance |
| B2 | higher tolerance |
| B3 | higher tolerance |
| B4 | higher tolerance |

Test system: rice T1 plants
Test: Herbicide tolerance of transgenic rice T1 plants to topramezone
Assay type: in vivo
Details: topramezone 50 and 100 g ai/ha, 7 DAT, compared to wild-type
Text: as §1
The rice T1 plants into which the AsHPPDm-F372A-02 nucleotide sequence was introduced, rice T1 plants into which the AsHPPDm-F372A-A110 nucleotide sequence was introduced, rice T1 plants into which the ZmHPPDm-F372A-02 nucleotide sequence was introduced, rice T1 plants into which the PfHPPDm-F372A-02 nucleotide sequence was introduced and wild-type rice plants (V3-V4 at seedling stage) were sprayed with topramezone at two different concentrations respectively, i.e. 50 g ai/ha (2-fold field concentration, 2 ×) and 100 g ai/ha (4-fold field concentration, 4 ×) to detect the herbicide tolerance of rice plants. According to the method in point 6 of Example 1, after 7 days of spraying (7 DAT), the damage degree of each plant by the herbicide was statistically analyzed, and the scoring and resistance evaluation were carried out accordingly. The rice T1 plants into which AsHPPDm-F372A-02 nucleotide sequence was introduced were of two strains in total (S12 and S13), rice T1 plants into which AsHPPDm-F372A-A1 10 nucleotide sequence was introduced were of two strains in total (S14 and S15), rice T1 plants into which ZmHPPDm-F372A-02 nucleotide sequence was introduced were of two strains in total (S16 and S17), rice T1 plants into which PfHPPDm-F372A-02 nucleotide sequence was introduced were of two strains in total (S18 and S19), and the wild-type rice plants were of one strain in total (CK2); and 8 plants were selected from each strain and tested.

| Molecule | tolerance to topramezone, in words |
| --- | --- |
| B1 | higher tolerance |
| B2 | higher tolerance |
| B3 | higher tolerance |
| B4 | higher tolerance |

Test system: soybean T1 plants
Test: Tolerance of transgenic soybean T1 plants to isoxaflutole
Assay type: in vivo
Details: isoxaflutole 140 and 280 g ai/ha, 7 DAT, compared to control vector and wild-type
Text: as §1
In order to further verify the tolerance effect of HPPD (F372A) on other HPPD inhibitors, the soybean T1 plants into which the AsHPPDm-F372A-02 nucleotide sequence was introduced, soybean T1 plants into which the ZmHPPDm-F372A-02 nucleotide sequence was introduced, soybean T1 plants into which the PfHPPDm-F372A-02 nucleotide sequence was introduced, soybean T1 plants into which the AsHPPDm-F372A-A110 nucleotide sequence was introduced, soybean T1 plants into which the control vector DBN11375NN was introduced in Example 8, and the wild-type soybean plants (V3-V4 at seedling stage) were sprayed as follows to detect the herbicide tolerance of each soybean plants, (1) 140 g ai/ha (2-fold field concentration, 2 ×) isoxaflutole; (2) 280 g ai/ha (4-fold field concentration, 4 ×) isoxaflutole; (3) 210 g ai/ha (2-fold field concentration, 2 ×) mesotrione; (4) 420 g ai/ha (4-fold field concentration, 4 ×) mesotrione. According to the method in point 6 of Example 1, after 7 days of spraying (7 DAT), the damage degree of each plant by the herbicide was statistically analyzed, and the scoring and resistance evaluation were carried out accordingly. […]

| Molecule | tolerance to isoxaflutole, in words |
| --- | --- |
| B1 | different degrees of tolerance |
| B2 | different degrees of tolerance |
| B3 | different degrees of tolerance |
| B4 | different degrees of tolerance |
